Source: patent US20220332795A1 (ARO BIOTHERAPEUTICS, published 2022)
Changes are numbered by the printed parent chain.

B1: SEQ ID NO 168 (designed binder)
chain: MLPAPKNLVVSRVTEDSARLSWTAPDAAFDSFYIAYAEPRPDGEAILLDVPGSERSYDLTGLKPGTEYSVLIHGVKGGLLSSPLSAIFTT
notes: FN3 domain
B2: SEQ ID NO 129 (designed binder)
chain: B1 chain with L47N, D49W, S85D, I87S
notes: FN3 domain
B3: SEQ ID NO 128 (designed binder)
chain: B1 chain with L47V, D49R, S85I, I87S
notes: FN3 domain
B4: SEQ ID NO 119 (designed binder)
chain: B1 chain with L47N, S85V, I87E
notes: FN3 domain
B5: SEQ ID NO 113 (designed binder)
chain: B1 chain with L47N, D49Q, S85V, I87F
notes: FN3 domain
B6: SEQ ID NO 125 (designed binder)
chain: B1 chain with L47A, D49H, S85V, I87F
notes: FN3 domain
B7: SEQ ID NO 122 (designed binder)
chain: B1 chain with L47I, D49V, I87H
notes: FN3 domain
B8: SEQ ID NO 116 (designed binder)
chain: B1 chain with L47Q, D49V
notes: FN3 domain
B9: SEQ ID NO 127 (designed binder)
chain: B1 chain with L47F, D49G
notes: FN3 domain
B10: SEQ ID NO 135 (designed binder)
chain: B1 chain with L47Q, D49A, S85H, I87F
notes: FN3 domain
B11: SEQ ID NO 134 (designed binder)
chain: B1 chain with L47G, D49Q
notes: FN3 domain
B12: SEQ ID NO 106 (designed binder)
chain: B1 chain with S85Y, I87S
notes: FN3 domain
B13: SEQ ID NO 120 (designed binder)
chain: B1 chain with L47H, D49S, S85V
notes: FN3 domain
B14: SEQ ID NO 117 (designed binder)
chain: B1 chain with L47T
notes: FN3 domain
B15: SEQ ID NO 118 (designed binder)
chain: B1 chain with L47W, D49V, S85V, I87S
notes: FN3 domain
B16: SEQ ID NO 132 (designed binder)
chain: B1 chain with Y33F, A35P, R40S, D42T, L47V, D49T, I87H
notes: FN3 domain
B17: SEQ ID NO 124 (designed binder)
chain: B1 chain with L47Q, D49H, S85L, I87S
notes: FN3 domain
B18: SEQ ID NO 112 (designed binder)
chain: B1 chain with D49L
notes: FN3 domain
B19: SEQ ID NO 133 (designed binder)
chain: B1 chain with L47Y, D49Y, S85D, I87F
notes: FN3 domain
B20: SEQ ID NO 105 (designed binder)
chain: B1 chain with L47F, D49V, S85H, I87N
notes: FN3 domain
B21: SEQ ID NO 104 (designed binder)
chain: B1 chain with L47S, D49L, S85Y, I87V
notes: FN3 domain
B22: SEQ ID NO 131 (designed binder)
chain: B1 chain with L47H, D49W, S85I, I87H
notes: FN3 domain
B23: SEQ ID NO 103 (designed binder)
chain: MLPAPKNLVVSRVTEDSARLSWTAPDAAFDSFHIVYHEPRPSGEAIWLHVPGSERSYDLTGLKPGTEYEVGIVSVKGGDLSVPLVAFFTT
notes: FN3 domain

Target: T1, recombinant biotinylated human CD71 extracellular domain (human, UniProt P02786 89-760, biotinylated)
T1 construct: extracellular domain; also called hCD71; huCD71 ECD
Experiment: solution ELISA, signal ratio to HSA

T1 sequence (P02786 other isoform, or with tags, fused parts or gaps): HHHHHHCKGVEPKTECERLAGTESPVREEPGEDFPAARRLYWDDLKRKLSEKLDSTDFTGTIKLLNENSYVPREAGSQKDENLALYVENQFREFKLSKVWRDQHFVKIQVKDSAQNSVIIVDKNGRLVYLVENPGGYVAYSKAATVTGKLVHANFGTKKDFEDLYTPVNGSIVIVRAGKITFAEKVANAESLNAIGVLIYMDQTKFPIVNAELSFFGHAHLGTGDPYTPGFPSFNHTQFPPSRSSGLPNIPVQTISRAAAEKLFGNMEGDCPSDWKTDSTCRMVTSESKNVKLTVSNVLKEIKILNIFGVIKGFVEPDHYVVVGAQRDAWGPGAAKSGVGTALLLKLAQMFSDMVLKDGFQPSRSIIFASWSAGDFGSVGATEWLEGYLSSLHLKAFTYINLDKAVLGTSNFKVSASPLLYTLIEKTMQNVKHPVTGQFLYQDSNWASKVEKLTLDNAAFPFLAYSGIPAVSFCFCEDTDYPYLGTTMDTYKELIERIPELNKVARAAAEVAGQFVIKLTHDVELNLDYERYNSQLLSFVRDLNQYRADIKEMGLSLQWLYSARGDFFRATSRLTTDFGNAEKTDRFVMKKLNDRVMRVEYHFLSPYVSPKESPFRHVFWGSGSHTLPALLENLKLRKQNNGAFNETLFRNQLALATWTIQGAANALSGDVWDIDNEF

Row | hCD71:HSA | Binder
1 | 271 | B1
2 | 13.8 | B2
3 | 121 | B3
4 | 57.6 | B4
5 | 42.6 | B5
6 | 76.2 | B6
7 | 351 | B7
8 | 37.1 | B8
9 | 66.3 | B9
10 | 42.1 | B10
11 | 36.7 | B11
12 | 118 | B12
13 | 42.5 | B13
14 | 75.4 | B14
15 | 120 | B15
16 | 43.2 | B16
17 | 63.1 | B17
18 | 413 | B18
19 | 41 | B19
20 | 142 | B20
21 | 89.8 | B21
22 | 10.3 | B22
23 | 28.2 | B23

Target: T2, CD71 apical domain (UniProt P02786 189-383, limits assumed)
T2 construct: domain: Apical domain
Experiment: solution ELISA, signal ratio to HSA

T2 sequence (P02786 189-383 limits assumed): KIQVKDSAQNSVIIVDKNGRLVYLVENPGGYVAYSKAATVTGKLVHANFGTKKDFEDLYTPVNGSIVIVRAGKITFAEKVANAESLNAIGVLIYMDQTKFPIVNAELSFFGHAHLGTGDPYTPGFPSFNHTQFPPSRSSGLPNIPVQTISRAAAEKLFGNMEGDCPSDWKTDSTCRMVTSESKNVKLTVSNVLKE

Row | apical domain:HSA | Binder
24 | 468 | B1
25 | 264 | B2
26 | 209 | B3
27 | 228 | B4
28 | 196 | B5
29 | 327 | B6
30 | 592 | B7
31 | 427 | B8
32 | 292 | B9
33 | 263 | B10
34 | 309 | B11
35 | 176 | B12
36 | 487 | B13
37 | 312 | B14
38 | 459 | B15
39 | 180 | B16
40 | 224 | B17
41 | 709 | B18
42 | 186 | B19
43 | 397 | B20
44 | 559 | B21
45 | 269 | B22
46 | 143 | B23

Target: T1, recombinant biotinylated human CD71 …
Experiment: solution ELISA

Row | hCD71, RLU [RLU] | Binder
47 | 3.97e+06 | B1
48 | 219000 | B2
49 | 4.31e+06 | B3
50 | 1.25e+06 | B4
51 | 1.27e+06 | B5
52 | 1.23e+06 | B6
53 | 4.77e+06 | B7
54 | 428000 | B8
55 | 1.41e+06 | B9
56 | 967000 | B10
57 | 640000 | B11
58 | 4.97e+06 | B12
59 | 501000 | B13
60 | 1.3e+06 | B14
61 | 1.73e+06 | B15
62 | 1.78e+06 | B16
63 | 1.54e+06 | B17
64 | 4.48e+06 | B18
65 | 1.04e+06 | B19
66 | 2.43e+06 | B20
67 | 947000 | B21
68 | 203000 | B22
69 | 818000 | B23

Target: T2, CD71 apical domain
Experiment: solution ELISA

Row | Apical domain, RLU [RLU] | Binder
70 | 6.86e+06 | B1
71 | 4.18e+06 | B2
72 | 7.41e+06 | B3
73 | 4.93e+06 | B4
74 | 5.83e+06 | B5
75 | 5.26e+06 | B6
76 | 8.06e+06 | B7
77 | 4.93e+06 | B8
78 | 6.24e+06 | B9
79 | 6.05e+06 | B10
80 | 5.39e+06 | B11
81 | 7.37e+06 | B12
82 | 5.75e+06 | B13
83 | 5.36e+06 | B14
84 | 6.58e+06 | B15
85 | 7.43e+06 | B16
86 | 5.46e+06 | B17
87 | 7.7e+06 | B18
88 | 4.74e+06 | B19
89 | 6.79e+06 | B20
90 | 5.9e+06 | B21
91 | 5.28e+06 | B22
92 | 4.14e+06 | B23
